Test [1] has as its target Glutamate decarboxylase (GAD) from Escherichia coli K12, produced in media supplemented with pyridoxine hydrochloride (GAD-V) (E. coli str. K12 substr. MG1655) (UniProt P69910). Nature of the test: SEC; Superdex 200 10/300GL, 20 mM citric acid-Na2HPO4 buffer pH 6.5 with 0.15 mM PLP, 0.4 mL/min, calibrated with molecular weight standards; native molecular weight about 324 kDa.

Test [2] concerns the target Glutamate decarboxylase (GAD) from Escherichia coli K12, produced without pyridoxine hydrochloride supplementation (GAD-C) (E. coli str. K12 substr. MG1655) (UniProt P69910). The test is described as above.

For orientation: stoichiometry N means the number of molecules, sites or subunits per partner or assembly. “Glutamate decarboxylase (GAD) from Escherichia coli K12, produced in media supplemented with pyridoxine hydrochloride (GAD-V) (from UniProt P69910 1-466) (enzyme)”: the stoichiometry N in test [1] worked out at 6.

The substance “Glutamate decarboxylase (GAD) from Escherichia coli K12, produced without pyridoxine hydrochloride supplementation (GAD-C) (from UniProt P69910 1-466) (enzyme)” returned a stoichiometry N in test [2] of 6.

These data come from article PMC4954698.
